In patent US20190032036:

How the values were obtained:
Assay in all cases: cell_activity
[1] = target: SpCas9 R780A R780A (Streptococcus pyogenes) (UniProt Q99ZW2)
[2] = target: SpCas9 K855A (Streptococcus pyogenes) (UniProt Q99ZW2)
[3] = test system: SpCas9 H982A H982A (Streptococcus pyogenes)
[4] = target: SpCas9 R1060A R1060A (Streptococcus pyogenes) (UniProt Q99ZW2)
[5] = target: SpCas9 K810A K810A (Streptococcus pyogenes) (UniProt Q99ZW2)
[6] = target: SpCas9 K1003A K1003A (Streptococcus pyogenes) (UniProt Q99ZW2)
[7] = target: SpCas9 K848A K848A (Streptococcus pyogenes) (UniProt Q99ZW2)
[8] = test system: SpCas9 R976A R976A (Streptococcus pyogenes)

Substance	activity ([1]; WT 10.5)	activity ([2]; WT 10.5, on-target 25.1 in same table)	activity ([3]; WT 10.5)	activity ([4]; WT 10.5)	activity ([5]; WT 10.5)	activity ([6]; WT 10.5)	activity ([7]; WT 10.5)	activity ([8]; WT 10.5)	activity ([1]; WT 8.8)	activity ([2]; WT 8.8)	activity ([3]; WT 8.8)	activity ([4]; WT 8.8)	activity ([5]; WT 8.8)	activity ([6]; WT 8.8)	activity ([7]; WT 8.8)	activity ([8]; WT 8.8)
EMX1(1) sgRNA guide ; EMX1 OT25	0 % indel	0.2 % indel	0.5 % indel	1.3 % indel	0.1 % indel	4.1 % indel	0.1 % indel	0.1 % indel	–	–	–	–	–	–	–	–
EMX1(1) sgRNA guide ; EMX1 OT46	–	–	–	–	–	–	–	–	0.1 % indel	0.3 % indel	0.4 % indel	1.8 % indel	0.1 % indel	2.8 % indel	0.1 % indel	0.1 % indel
